# Measured values from patent publication US6140129.
# Test system: FLP recombinase (Saccharomyces cerevisiae (2-micron plasmid))
# Experiment: cell_activity
Substance,"activity (Tet^R colonies per trial) (no chromosomal FRT, 4 experiments)","activity (colonies per plate) (non-target strain with IPTG, 0 without)","activity (colonies per plate) (lambda FRT36 integration at lacZ-FRT with IPTG (39 without), lacY-FRT 206 with and 247 without)"
E. coli chromosome without FRT,0,1,–
minimal wild-type FRT (from pJFS36),–,–,139
